Assay [1] addresses FlAsH-Saci_1373 (ESCRT-III wH domain, residues 194-261) (S. acidocaldarius) (UniProt Q4J924). The assay can be described thus: fluorescence polarisation.
The target of assay [2] is T1, S. solfataricus ESCRT-III wH domain (His6-SSO0910, residues 210-259) (S. solfataricus, UniProt Q97ZJ6 210-259).
T1 chain (looked up): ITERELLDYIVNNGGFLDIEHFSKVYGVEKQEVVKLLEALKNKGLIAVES
Nature of the assay: crystal structure.

Assay [3] has as its target T2, GST fused to full length ESCRT-III (Saci_1373) (S. acidocaldarius, UniProt Q4J924 1-261).
T2 sequence (looked up): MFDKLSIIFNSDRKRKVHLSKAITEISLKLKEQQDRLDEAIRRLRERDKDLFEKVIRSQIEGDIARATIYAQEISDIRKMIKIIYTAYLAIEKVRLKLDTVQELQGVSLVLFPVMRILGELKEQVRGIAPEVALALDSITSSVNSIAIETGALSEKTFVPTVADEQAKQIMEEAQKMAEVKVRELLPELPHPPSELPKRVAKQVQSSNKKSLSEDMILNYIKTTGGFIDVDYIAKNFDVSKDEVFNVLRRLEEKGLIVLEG
Nature of the assay: pull-down.

For assay [4], the target named is T3, full length ESCRT-III (Saci_1373), purified recombinant (S. acidocaldarius, UniProt Q4J924 1-261).
T3 sequence (looked up): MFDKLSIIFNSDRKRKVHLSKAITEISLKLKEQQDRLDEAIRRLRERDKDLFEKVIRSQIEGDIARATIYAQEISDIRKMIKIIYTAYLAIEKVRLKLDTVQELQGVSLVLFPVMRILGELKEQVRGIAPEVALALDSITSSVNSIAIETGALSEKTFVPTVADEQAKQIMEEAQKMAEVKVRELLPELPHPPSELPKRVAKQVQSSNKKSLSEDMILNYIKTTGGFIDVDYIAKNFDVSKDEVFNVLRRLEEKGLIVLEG
Nature of the assay: co-sedimentation.

Broadly, the Kd is the constant that tells how readily two partners part at equilibrium. With “GST-tagged CdvA residues 208-238 (from UniProt Q4J923 208-238) (domain or fragment)”, the Kd in assay [1] stood at 6 µM.

Take SEIPLPIPVKVINTL (peptide, UniProt Q97ZJ5 251-265, looked up) [S. solfataricus CdvA E3B peptide (SSO0911, residues 251-265)]: in assay [2], the binding result is “binds”.

B1: CdvA (Saci_1374) residues 69-238 (domain or fragment, S. acidocaldarius, UniProt Q4J923 69-238, looked up)
chain: DWKTDSLKVLGQMEKIRKRQRALEELYSRQEIPKSTYEDMKRKLDSELLKIRDEHSRLKGRLKDRLNSIEDQVAQIDRAMIALKINYISGEIPELAYKNSMEILRLSRDSYALERDDIKKTLDKLDGLDKEVIELKPSASLNTSTEQSNKNEGNKSEVSVPIPVRVINTL
Regarding B1, the binding result in assay [3] and in assay [4] was “binds” in each case.

The values above are taken from article PMC3763469 (Molecular cell, 2011).
